Experimental findings from article PMC1847943 (Molecular Systems Biology, 2007) are described below.

The chains are these.
B1: KaiA (natural protein, Synechococcus elongatus PCC 7942, UniProt Q79PF6 1-284, looked up)
chain: MLSQIAICIWVESTAILQDCQRALSADRYQLQVCESGEMLLEYAQTHRDQIDCLILVAANPSFRAVVQQLCFEGVVVPAIVVGDRDSEDPDEPAKEQLYHSAELHLGIHQLEQLPYQVDAALAEFLRLAPVETMADHIMLMGANHDPELSSQQRDLAQRLQERLGYLGVYYKRDPDRFLRNLPAYESQKLHQAMQTSYREIVLSYFSPNSNLNQSIDNFVNMAFFADVPVTKVVEIHMELMDEFAKKLRVEGRSEDILLDYRLTLIDVIAHLCEMYRRSIPRET
B2: KaiB (natural protein, Synechococcus elongatus PCC 7942, UniProt Q79PF5 1-102, looked up)
chain: MSPRKTYILKLYVAGNTPNSVRALKTLKNILEVEFQGVYALKVIDVLKNPQLAEEDKILATPTLAKVLPLPVRRIIGDLSDREKVLIGLDLLYGELQDSDDF
B3: KaiC (natural protein, Synechococcus elongatus PCC 7942, UniProt Q79PF4 1-519, looked up)
chain: MTSAEMTSPNNNSEHQAIAKMRTMIEGFDDISHGGLPIGRSTLVSGTSGTGKTLFSIQFLYNGIIEFDEPGVFVTFEETPQDIIKNARSFGWDLAKLVDEGKLFILDASPDPEGQEVVGGFDLSALIERINYAIQKYRARRVSIDSVTSVFQQYDASSVVRRELFRLVARLKQIGATTVMTTERIEEYGPIARYGVEEFVSDNVVILRNVLEGERRRRTLEILKLRGTSHMKGEYPFTITDHGINIFPLGAMRLTQRSSNVRVSSGVVRLDEMCGGGFFKDSIILATGATGTGKTLLVSRFVENACANKERAILFAYEESRAQLLRNAYSWGMDFEEMERQNLLKIVCAYPESAGLEDHLQIIKSEINDFKPARIAIDSLSALARGVSNNAFRQFVIGVTGYAKQEEITGLFTNTSDQFMGAHSITDSHISTITDTIILLQYVEIRGEMSRAINVFKMRGSWHDKAIREFMISDKGPDIKDSFRNFERIISGSPTRITVDEKSELSRIVRGVQEKGPES
modifications: phosphorylation level changes over the incubation with KaiA, KaiB and ATP (autophosphorylation)

For orientation: stoichiometry N means a count of units in the complex or per binding partner.

This series concerns the molecule itself. Kind of series: native gel or EMSA. For orientation: In EMSA bound probe runs differently from free probe, usually more slowly.
For the protein B1, the “stoichiometry N” value is 2. B2: the “stoichiometry N” value amounted to 4. Take B3: the “stoichiometry N” value worked out at 6.
